Measurements from paper PMC11254934.
No end group written: not given here. *: point of attachment. G0F = octasaccharide N-glycan with core α-1,6-fucose, CC(=O)N[C@@H]1[C@@H](O)[C@H](O[C@@H]2O[C@H](CO)[C@@H](O[C@@H]3O[C@H](CO[C@H]4O[C@H](CO)[C@@H](O)[C@H](O)[C@@H]4O[C@@H]4O[C@H](CO)[C@@H](O)[C@H](O)[C@H]4NC(C)=O)[C@@H](O)[C@H](O[C@H]4O[C@H](CO)[C@@H](O)[C@H](O)[C@@H]4O[C@@H]4O[C@H](CO)[C@@H](O)[C@H](O)[C@H]4NC(C)=O)[C@@H]3O)[C@H](O)[C@H]2NC(C)=O)[C@@H](CO[C@@H]2O[C@@H](C)[C@@H](O)[C@@H](O)[C@@H]2O)O[C@H]1*

Target: anti-fuc-PSA mAb 2E9 (rabbit)
Sequence (heavy, as listed by the source, chain 1 of 2): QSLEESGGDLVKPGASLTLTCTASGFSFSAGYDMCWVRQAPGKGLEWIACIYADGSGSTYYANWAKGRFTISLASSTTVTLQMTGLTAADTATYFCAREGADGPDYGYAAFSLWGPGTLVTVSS
Sequence (light, as listed by the source, chain 2 of 2): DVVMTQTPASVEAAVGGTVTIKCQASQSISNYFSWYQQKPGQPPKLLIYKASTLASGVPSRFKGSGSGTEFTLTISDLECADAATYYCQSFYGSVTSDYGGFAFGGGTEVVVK
Assay: SPR; Biacore 8k, 37 °C, HBS-ET (10 mM HEPES pH 7.4, 150 mM NaCl, 3 mM EDTA, 0.005% Tween 20) with 1 mg/mL carboxymethyl dextran; rabbit IgG from culture supernatant captured by goat anti-rabbit Fcγ on CM5; peptides injected at 0, 11, 33, 100, 300, 900 nM; Langmuir fit

BL (binding late): 27 RU
Kd: 0.6 nM
stoichiometry N: 2
t1/2 (antibody–antigen complex half-life): 10 min
Binder: IRN(G0F)KSVILLGRHS [PSA(67–79)-G0F]
